Measured values from publication PMC3212534, “Structural-Functional Characterization and Physiological Significance of Ferredoxin-NADP^+ Reductase from Xanthomonas axonopodis pv. citri” (PLoS ONE, 2011).

How the values were obtained:
[1] = system: NC(=O)C1=CN([C@@H]2O[C@H](COP(=O)(O)OP(=O)(O)OC[C@H]3O[C@@H](n4cnc5c(N)ncnc54)[C@H](O)[C@@H]3O)[C@@H](O)[C@H]2O)C=CC1; test: purified protein; details: 1 mM potassium ferricyanide as acceptor, 50 mM Tris-HCl pH 8.0, 30 °C
[2] = system: NC(=O)C1=CN([C@@H]2O[C@H](COP(=O)(O)OP(=O)(O)OC[C@H]3O[C@@H](n4cnc5c(N)ncnc54)[C@H](OP(=O)(O)O)[C@@H]3O)[C@@H](O)[C@H]2O)C=CC1; test: purified protein; details: potassium ferricyanide as acceptor, 50 mM Tris-HCl pH 8.0, 30 °C
Ec-FNR = target: T1, Ec-FNR (Escherichia coli, UniProt P28861); test: UV-visible difference spectroscopy; type: binding; details: 0.3 mM NADP+; Kd in Table 1 is quoted from reference 49
T1 construct: gene fpr; subclass II bacterial FNR; preparation not described here
T1 sequence (P28861 2-248): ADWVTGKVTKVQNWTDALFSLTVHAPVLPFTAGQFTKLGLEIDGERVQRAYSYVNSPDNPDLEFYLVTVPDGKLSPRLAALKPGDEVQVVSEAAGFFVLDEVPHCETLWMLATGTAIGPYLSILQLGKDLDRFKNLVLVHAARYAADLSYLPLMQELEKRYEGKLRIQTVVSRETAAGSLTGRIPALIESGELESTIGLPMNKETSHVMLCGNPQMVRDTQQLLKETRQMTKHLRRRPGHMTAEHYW

Xac-FNR = target: T2, Xac-FNR (Xanthomonas citri, UniProt A0AAI7ZED9); test: difference absorption spectroscopy titration; type: binding; details: read-out: NADPH / K d
T2 construct: gene fpr; entire coding region in pET28a, N-terminal His6 tag cut with thrombin; expressed in E. coli BL21(DE3)pLysS; FAD-containing subclass I bacterial FNR
Text: difference absorption spectroscopy titration on Xac-FNR

pea-FNR = target: T3, pea-FNR (Lathyrus oleraceus, UniProt P10933); test: UV-visible difference spectroscopy; type: binding; details: 0.3 mM NADP+; Kd in Table 1 is quoted from reference 49
T3 construct: gene PETH; plastidic FNR; preparation not described here
T3 sequence (P10933 53-360): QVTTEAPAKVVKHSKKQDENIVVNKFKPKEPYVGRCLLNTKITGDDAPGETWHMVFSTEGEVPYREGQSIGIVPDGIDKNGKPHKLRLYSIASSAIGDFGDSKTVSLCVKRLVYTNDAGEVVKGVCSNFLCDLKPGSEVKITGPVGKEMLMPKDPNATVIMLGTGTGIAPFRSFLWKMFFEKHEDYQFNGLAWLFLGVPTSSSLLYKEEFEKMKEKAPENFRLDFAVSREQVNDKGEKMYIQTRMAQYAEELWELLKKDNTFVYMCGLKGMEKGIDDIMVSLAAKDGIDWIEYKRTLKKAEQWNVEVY

T2 sequence (A0AAI7ZED9 entry or part of it): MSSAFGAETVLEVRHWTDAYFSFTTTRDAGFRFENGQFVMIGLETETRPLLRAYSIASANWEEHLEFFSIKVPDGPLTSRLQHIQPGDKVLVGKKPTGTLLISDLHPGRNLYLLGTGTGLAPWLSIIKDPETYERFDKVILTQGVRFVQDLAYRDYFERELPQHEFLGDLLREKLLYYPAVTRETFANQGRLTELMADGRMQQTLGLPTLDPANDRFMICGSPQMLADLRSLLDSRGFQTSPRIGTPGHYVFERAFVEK

Compound | Km [1] [µM] | kcat [1] [s⁻¹] | kcat/Km [1] [M⁻¹ s⁻¹] | Km [2] [µM] | kcat [2] [s⁻¹] | kcat/Km [2] [M⁻¹ s⁻¹] | UV-visible difference spectroscopy (Ec-FNR) | Kd (Xac-FNR) [µM] | UV-visible difference spectroscopy (pea-FNR)
Xac-FNR (Xanthomonas citri subsp. citri 306) | 3300 ± 1400 | 3.2 ± 1.3 | 1000 | 10.8 ± 0.5 | 122 | 1.13e+07 | – | – | –
NC(=O)c1ccc[n+]([C@@H]2O[C@H](COP(=O)(O)OP(=O)(O)OC[C@H]3O[C@@H](n4cnc5c(N)ncnc54)[C@H](OP(=O)(O)O)[C@@H]3O)[C@@H](O)[C@H]2O)c1 [NADP^+] | – | – | – | – | – | – | Differential UV-visible spectra elicited by the interaction between the enzymes and NADP^+ | 9.7 ± 0.4 | Differential UV-visible spectra elicited by the interaction between the enzymes and NADP^+
